Test results as given in patent publication US20260132208A1 (DOMAIN THERAPEUTICS, published 2026).
Values joined by “and” are separate entries in the source; they are usually repeats but may differ in a detail not shown here. Identical values can stand only once.

Columns and labels:
[1] = target: T1, human CCR8 (human, UniProt P51685 1-355); assay: cell-based or functional assay
[2] = target: T1, human CCR8; assay: cell-based or functional assay; remark: listed apart in the source
[3] = target: T1, human CCR8; assay: cell-based or functional assay; remark: listed apart in the source
[4] = target: T2, pm3 (Y17 sulfated; Y15 and Y16 not sulfated); assay: ELISA on coated peptide [cont.]
T2 construct: also called sulfated CCR8 N-terminal peptide pm3
T2 sequence (peptide, as listed by the source): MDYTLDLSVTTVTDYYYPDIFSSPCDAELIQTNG
Method: (§1) The specific binding properties of antibodies were evaluated by ELISA with coated CCR8 related peptides (500 ng/ml) in carbonate/bicarbonate buffer. Different peptides were used as described in Table 1 (see Example 1). Each anti-CCR8 mAb was tested at 1 μg/mL then diluted at 1/10. After an incubation at room temperature during 90 min, unbound mAbs were removed by washings. […] After washings, 3,3′,5,5′-tetramethylbenzidine (TMB) (Interchim, Montluçon, France) was added for 15 min. Then the optical density (OD) was determined by using a multiplate reader (Tecan, Lyon, France) and correlated with mAb reactivity on the panel of coated peptides.

[5] = target: T3, pm5 (Y15 and Y17 sulfated; Y16 not sulfated); assay: ELISA on coated peptide [cont.]
T3 construct: also called sulfated CCR8 N-terminal peptide pm5
T3 sequence (peptide, as listed by the source): as above
Method: as §1

[6] = target: T4, pm6 (Y16 and Y17 sulfated; Y15 not sulfated); assay: ELISA on coated peptide [cont.]
T4 construct: also called sulfated CCR8 N-terminal peptide pm6
T4 sequence (peptide, as listed by the source): as above
Method: as §1

[7] = target: T5, pm8 (Y15, Y16 and Y17 sulfated); assay: ELISA on coated peptide [cont.]
T5 construct: also called sulfated CCR8 N-terminal peptide pm8
T5 sequence (peptide, as listed by the source): as above
Method: as §1

[8] = target: T1, human CCR8; assay: flow cytometry, hCCR8-transfected CHO-K1 cells
Method: Briefly, 1.10⁵ cells per well in a 96 well plate were incubated with a dilution of unconjugated anti-CCR8 mAb at 10 μg/mL then diluted at 1/3.33, 4 dilution points (during 30 min at 4° C.). In human activated T cells model, prior to mAb incubation, cells were first incubated with 200 nM of hCCL1 (R&D Systems, Minneapolis, MN, USA) or buffer PBS (Invitrogen by Thermofisher Scientific, Illkirch-Graffenstaden, France) supplemented by 2% Fetal Bovine Serum (Invitrogen by Thermofisher Scientific, Illkirch-Graffenstaden, France) and 2 mM EDTA (Invitrogen by Thermofisher Scientific, Illkirch-Graffenstaden, France) during 1 hour at 4° C. To determine EC50 value, 8 concentrations of anti-CCR8 mAb were tested. Unbound antibodies were washed away with PBS (Invitrogen by Thermofisher Scientific, Illkirch-Graffenstaden, France) supplemented by 2% Fetal Bovine Serum (Invitrogen by Thermofisher Scientific, Illkirch-Graffenstaden, France) and 2 mM EDTA (Invitrogen by Thermofisher Scientific, Illkirch-Graffenstaden, France). Subsequently, cells are centrifuged (5 min at 400 g) and bound antibody is detected with F(ab′)2-Goat anti-Mouse IgG (H+L) Cross-Adsorbed Secondary Antibody, Alexa Fluor 488 (dilution 1/500) (Invitrogen by Thermofisher Scientific, Illkirch-Graffenstaden, France) or with F(ab′)₂-Goat anti-Human IgG Fc Secondary Antibody, PE (Invitrogen by Thermofisher Scientific, Illkirch-Graffenstaden, France) (dilution 1/1000) at 4° C. for 30 min. Detection reagent is washed away and cells are centrifuged (5 min at 400 g) and resuspended in 30 μL PBS. Bound detection antibody is quantified on a MacsQuant16 (Miltenyi, Gladbach, Germany) (B1 or B2 channel, 5000 events per acquisition). During the experiment, the respective isotype mAb controls (mouse IgG1, mouse IgG2a, mouse IgG2b, mouse IgG3 or human IgG1) (Biolegend, Amsterdam, The Netherlands) are included to exclude any unspecific binding events. EC50 values were determined via nonlinear fit “log (agonist) vs.response—Variable slope (four parameters)” function of Graphpad prism. EC50 values were not constantly determined in the same experiments.

[9] = target: T1, human CCR8; assay: flow cytometry, inhibition of hCCL1-AF647 (10 nM) binding to hCCR8-CHO cells
Method: The hCCR8 transfected CHO cell line was dispatched at a density of 1.105 per well in a 96-well plate. Cells were incubated for 30 min at 4° C. with or without anti-CCR8 mAb tested at 10 μg/mL then diluted at 1/3. Unbound antibodies were washed away with PBS (Gibco, Villebon-sur-yvette, France) supplemented by 2% Fetal Bovine Serum (Invitrogen by Thermofisher Scientific, Illkirch-Graffenstaden, France) and 2 mM EDTA. […] After washing unbound ligands, CCL1 bound detection is quantified on a MacsQuant16 (Miltenyi, Gladbach, Germany) (R1 channel, 5 000 events per acquisition).
For IC₅₀ determination, a concentration response curve is performed using 8 concentrations of mAb. Curves are fitted and IC₅₀ of CCL1 binding blocking activity is calculated using the sigmoidal dose-response (variable slope) model on GraphPad Prism 9 (GraphPad Software, San Diego, CA, USA).

[10] = target: T1, human CCR8; assay: cell-based or functional assay; remark: listed apart in the source

| Binder | IC50 of CCL1-induced hCCR8 Gi2 signaling (BRET, HEK-293) [1] | residual hCCL1 (100 nM) Gi2 response, protocol #2, mAb 0.08 µg/mL [2] [%] | residual hCCL1 (100 nM) Gi2 response, protocol #2, mAb 0.4 µg/mL [2] [%] | residual hCCL1 (100 nM) Gi2 response, protocol #2, mAb 10 µg/mL [2] [%] | residual hCCL1 (100 nM) Gi2 response, protocol #3, mAb 0.05 µg/mL [2] [%] | residual hCCL1 (100 nM) Gi2 response, protocol #3, mAb 0.5 µg/mL [2] [%] | residual hCCL1 (100 nM) Gi2 response, protocol #3, mAb 5 µg/mL [2] [%] | extrapolated top plateau of hCCL1 curve with 5 µg/mL mAb, protocol #3 [3] | binding result [4] | binding result [5] | binding result [6] | binding result [7] | % positive cells [8] [%] | MFI fold change to isotype ctrl [8] [fold] | IC50 [9] | IC50 of CCL1-induced hCCR8 Gi2 signaling (BRET), pH 6.5 [10] | IC50 of CCL1-induced hCCR8 Gi2 signaling (BRET), pH 7.4 [10] |
| --- | --- | --- | --- | --- | --- | --- | --- | --- | --- | --- | --- | --- | --- | --- | --- | --- | --- |
| anti-CCR8 mAb 1-15 (antibody, V domains shown, Murine hybridoma mAb) VH: EVQLQQSGPELVKPGASVKISCKTSGYTFTEYTMHWVKQSHGKSLEWIGGINPNNGDTNYNQKFMGKATLTVDKSSSTAYMELRSLTSEDSAVYYCVRRLLRRGAMDYWGQGTSVTVSS VL: DIVLTQSPASLAVSLGQRATISCRASENVEYYGTSLMQWFQQKPGQPPKLLIYAASNVDSGVPARFSGSGSGTDFSLNIHPVEEDDIAMYFCQQSRKVPWTFGGGTKLDIK | 0.019 µg/mL and 0.129 nM | 99 | 102 | 95 | 102 | 97 | 67 | 135000 % of hCCL1 (100 nM) | binds | binds | binds | binds | 73.4 | 6.52 | 0.75 µg/mL and 5.01 nM |  |  |
| anti-CCR8 mAb 1-2 (antibody, V domains shown, Murine hybridoma mAb) VH: EVQLVESGGGLVQPKGSLKLSCAASGFTFNTYAMNWVRQAPGKGLEWVARIRSKSNNYATYYADSVKDRFTISRDDSQSMLYLQMNNLKTEDTAMYYCVRGREAYYRYDGGYYAMDYWGQGTSVTVSS VL: DIVMTQAAPSVPVTPGESVSISCRSSKSLLHSNGNTYLYWFLQRPGQSPQLLIYRMSNLASGVPDRFSGSGSGTAFTLRISRVEAEDVGVYYCMQHLEYPFTFGSGTKLEIK | 0.191 nM and 0.029 µg/mL | 60 | 36 | 19 | 74 | 68 | 48 | 640000 % of hCCL1 (100 nM) | binds | binds | binds | binds | 90.6 | 22.7 | 0.83 µg/mL and 5.55 nM | 0.03 µg/ml and 0.198 nM | 0.031 µg/ml and 0.21 nM |
| anti-CCR8 mAb 1-8 (antibody, V domains shown, Murine hybridoma mAb) VH: EVQLVESGGGLVQPKGSLRLSCAASGFTFNAYAMNWVRQAPGKGLEWVARIRSKSNNYATYYGDSVKDRFTISRDDSQTMLYLQMNNLKTEDTAMYYCVRGREAYYRYDGDYYAMDYWGQGTSVTVSS VL: not shown | 0.031 µg/mL and 0.209 nM | 70 | 44 | 51 | 78 | 55 | 43 | 511000 % of hCCL1 (100 nM) | binds | binds | binds | binds | 68.5 | 5.12 | 2.55 µg/mL and 17.1 nM | 0.053 µg/ml and 0.355 nM | 0.063 µg/ml and 0.421 nM |
| anti-CCR8 mAb 1-1 (antibody, V domains shown, Murine hybridoma mAb) VH: EVQLLESGGGLVQPKGSLKLSCAASGFTFNPYAMNWVRQAPGRGLEWVARIRSKSNNYATYYADSVKDRFTISRDDSQDMLYLQMNNLKTEDTAMYYCVRGREAYYRYDGDYYAMDYWGQGTSVTVSS VL: DIVMTQAAPSVPVTPGESVSISCRSSKSLLHSNGNTYLYWFLQRPGQSPQLLIYRMSNLASGVPDRFSGSGSGTAFTLRISRVEAEDVGVYYCMQHLEYPFTFGSGTKLEIK | 0.023 µg/mL and 0.153 nM | 81 | 69 | 44 | 77 | 57 | 49 | 760000 % of hCCL1 (100 nM) | binds | binds | binds | binds | 72.8 | 6.32 | 1.02 µg/mL and 6.83 nM | 0.021 µg/ml and 0.143 nM | 0.024 µg/ml and 0.163 nM |
| anti-CCR8 mAb 1-4 (antibody, V domains shown, Murine hybridoma mAb) VH: EVQLVESGGGLVQPTGSLRLSCAASGFTFNAYAMNWVRQAPGKGLEWVARIRSKSNDYATYYGDSVKDRFTISRDDSQSMLYLQMNNLKTEDTAMYYCVRGREAYYRYDGGYYAMDYWGQGTSVTVSS VL: DIVMTQAAPSVSVTPGESVSISCTSSKSLLHSNGNTYLYWFLQRPGQSPQLLIYRMSNLASGVPDRFSGSGSGTAFTLRISRVEAEDVGVYYCMQHREYPFTFGSGTKLEIK | 0.034 µg/mL and 0.227 nM | 72 | 49 | 28 | 75 | 36 | 22 | 313000 % of hCCL1 (100 nM) | binds | binds | binds | binds | 66.8 | 5.06 | 1.93 µg/mL and 12.9 nM | 0.034 µg/ml and 0.225 nM | 0.065 µg/ml and 0.434 nM |
